Read-outs that look alike come from different tables or passages of the source.

Test in all cases: AlphaScreen or HTRF
On the technique in general: Alpha assays give light when donor and acceptor beads are brought close together.

Assay [1] concerns the target His6-tagged MLV IN (Moloney Murine Leukemia Virus).
The target is the same in assay [2]. The source holds these as a separate data set.
Assay [3] addresses GST-tagged mBRD4ET (aa 601-685) (mouse) (UniProt Q9ESU6).

His6-tagged MLV IN (Moloney Murine Leukemia Virus), sequence (P03355 1331-1738 limits assumed): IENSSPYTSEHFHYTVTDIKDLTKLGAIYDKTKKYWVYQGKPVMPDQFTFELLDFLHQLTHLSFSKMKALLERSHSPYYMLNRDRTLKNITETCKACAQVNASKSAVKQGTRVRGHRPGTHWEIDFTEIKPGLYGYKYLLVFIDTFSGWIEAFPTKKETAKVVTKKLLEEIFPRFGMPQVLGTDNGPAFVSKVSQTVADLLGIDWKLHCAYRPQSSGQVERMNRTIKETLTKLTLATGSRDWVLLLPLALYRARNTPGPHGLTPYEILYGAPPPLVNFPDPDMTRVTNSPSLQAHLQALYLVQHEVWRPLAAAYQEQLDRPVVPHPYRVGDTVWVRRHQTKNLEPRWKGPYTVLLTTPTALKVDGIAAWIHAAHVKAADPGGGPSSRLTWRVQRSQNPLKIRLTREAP

Turning to “GST-tagged mBRD4ET (aa 601-685) (from UniProt Q9ESU6 601-685) (domain or fragment)”, the Kd (usually the concentration at which binding is half-saturated) in assay [1] was 8.56 nM; in assay [2], 58.7 nM.
In the case of “GST-tagged mBRD4_(ETSEED) (aa 601-721) (from UniProt Q9ESU6 601-721) (domain or fragment)”, the Kd worked out at 58.7 nM in assay [1] and 8.56 nM in assay [2].
As for His6-tagged MLV IN (enzyme), the Kd in assay [3] was 56.7 nM. This lies in the double-digit nanomolar range.
“MBP-fused BRD2 ET domain (domain or fragment)” returned a Kd in assay [1] of 0.6 nM.
On to “MBP-fused BRD3 ET domain (domain or fragment)”, for which, in assay [1], the equilibrium dissociation constant (Kd) is 0.97 nM.
Same read-out and setting: the same measure for “MBP-fused BRD4 ET domain (domain or fragment)”: 0.41 nM.

For the origin of these results see PMC4197836.
